Here are results for one substance from patent US20160136234A1.

This test addresses Mitogen-Activated Protein Kinase-Activated Protein Kinase 2 (human) (UniProt P49137). Put plainly: cell-based or functional assay.

MMI-0100 (peptide): the IC50 (radiometric kinase activity assay) was determined as 22 µM.
